Reference: article PMC3206214 (Molecular cell, 2011)

How the values were obtained:
Test in all cases: far-Western, overlay or dot blot
MBP-BSU1 = MBP-BSU1 (Arabidopsis, UniProt Q9LR78 1-793)
MBP-BSU1-S764A = molecular target: T1, MBP-BSU1-S764A (Arabidopsis, UniProt Q9LR78 1-793, S764A)
T1 sequence (looked up): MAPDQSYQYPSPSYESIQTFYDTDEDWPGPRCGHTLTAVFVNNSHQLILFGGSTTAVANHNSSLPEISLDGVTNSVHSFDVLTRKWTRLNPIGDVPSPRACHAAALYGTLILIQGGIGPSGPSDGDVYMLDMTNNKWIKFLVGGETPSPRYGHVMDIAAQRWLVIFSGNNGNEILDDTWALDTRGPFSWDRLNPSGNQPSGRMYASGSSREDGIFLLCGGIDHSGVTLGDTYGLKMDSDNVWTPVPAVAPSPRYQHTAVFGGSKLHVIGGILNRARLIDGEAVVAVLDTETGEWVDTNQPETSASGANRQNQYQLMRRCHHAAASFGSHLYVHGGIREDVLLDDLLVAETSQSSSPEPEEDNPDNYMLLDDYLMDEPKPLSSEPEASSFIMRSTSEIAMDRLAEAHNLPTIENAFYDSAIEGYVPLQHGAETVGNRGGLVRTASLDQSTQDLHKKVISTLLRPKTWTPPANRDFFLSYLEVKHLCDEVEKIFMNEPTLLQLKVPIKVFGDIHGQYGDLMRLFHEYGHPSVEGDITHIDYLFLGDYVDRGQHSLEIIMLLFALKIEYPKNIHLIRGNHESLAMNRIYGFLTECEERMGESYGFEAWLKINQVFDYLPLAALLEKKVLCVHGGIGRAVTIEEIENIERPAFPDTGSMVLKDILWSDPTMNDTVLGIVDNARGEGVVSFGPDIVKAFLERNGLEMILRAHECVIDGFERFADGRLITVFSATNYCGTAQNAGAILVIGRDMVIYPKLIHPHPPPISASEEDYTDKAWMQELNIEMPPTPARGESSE

[1] = molecular target: MBP-BSU1 pre-incubated with GST-CDG1 and ATP (Arabidopsis, UniProt Q9LR78 1-793, phosphoserine at 764 (by CDG1))

B1: GST-CDG1 (natural protein, Arabidopsis, UniProt Q9LSE1 1-432, looked up)
chain: MVSCLCFRPSRKTKLKDKSHKRSIRNQTSSSSAQPAGTAKEVDSSSSQTVVQDSSRYRCQIFSYRELAIATNSFRNESLIGRGGFGTVYKGRLSTGQNIAVKMLDQSGIQGDKEFLVEVLMLSLLHHRNLVHLFGYCAEGDQRLVVYEYMPLGSVEDHLYDLSEGQEALDWKTRMKIALGAAKGLAFLHNEAQPPVIYRDLKTSNILLDHDYKPKLSDFGLAKFGPSDDMSHVSTRVMGTHGYCAPEYANTGKLTLKSDIYSFGVVLLELISGRKALMPSSECVGNQSRYLVHWARPLFLNGRIRQIVDPRLARKGGFSNILLYRGIEVAFLCLAEEANARPSISQVVECLKYIIDHTIRKERRTRRRLLGGNKDGAGTSRSPDETMMRMLEEEEEYVTSEEAIERRRVIVDDARTWAGMNRRGATPPTPTP
B1: binds (MBP-BSU1).

B2: GST-CDG1 pre-incubated with GST-BRI1-K and ATP (natural protein, Arabidopsis, UniProt Q9LSE1 1-432, looked up)
chain: MVSCLCFRPSRKTKLKDKSHKRSIRNQTSSSSAQPAGTAKEVDSSSSQTVVQDSSRYRCQIFSYRELAIATNSFRNESLIGRGGFGTVYKGRLSTGQNIAVKMLDQSGIQGDKEFLVEVLMLSLLHHRNLVHLFGYCAEGDQRLVVYEYMPLGSVEDHLYDLSEGQEALDWKTRMKIALGAAKGLAFLHNEAQPPVIYRDLKTSNILLDHDYKPKLSDFGLAKFGPSDDMSHVSTRVMGTHGYCAPEYANTGKLTLKSDIYSFGVVLLELISGRKALMPSSECVGNQSRYLVHWARPLFLNGRIRQIVDPRLARKGGFSNILLYRGIEVAFLCLAEEANARPSISQVVECLKYIIDHTIRKERRTRRRLLGGNKDGAGTSRSPDETMMRMLEEEEEYVTSEEAIERRRVIVDDARTWAGMNRRGATPPTPTP
modifications: phosphoserine at 44, 47 and 234 (BRI1 phosphorylation sites, found by mass spectrometry on GST-CDG1-Y147G)
B2: binds (MBP-BSU1).

B3: GST-BIN2 (natural protein, Arabidopsis, UniProt Q39011 1-380, looked up)
chain: MADDKEMPAAVVDGHDQVTGHIISTTIGGKNGEPKQTISYMAERVVGTGSFGIVFQAKCLETGETVAIKKVLQDRRYKNRELQLMRVMDHPNVVCLKHCFFSTTSKDELFLNLVMEYVPESLYRVLKHYSSANQRMPLVYVKLYMYQIFRGLAYIHNVAGVCHRDLKPQNLLVDPLTHQVKICDFGSAKQLVKGEANISYICSRFYRAPELIFGATEYTTSIDIWSAGCVLAELLLGQPLFPGENAVDQLVEIIKVLGTPTREEIRCMNPHYTDFRFPQIKAHPWHKIFHKRMPPEAIDFASRLLQYSPSLRCTALEACAHPFFDELREPNARLPNGRPFPPLFNFKQEVAGSSPELVNKLIPDHIKRQLGLSFLNQSGT
B3: binds (MBP-BSU1-S764A); binds [1].
